{"source": "patent US20200024360A1", "about": "(Janssen / Centocor, published 2020)", "key": {"[1]": {"molecular_target": "T1, human PSMA (prostate specific membrane antigen), full length (human, UniProt Q04609 1-750)", "T1 construct": "On LNCaP or C4-2B cells (endogenous) or transduced HEK293F cells; also called FOLH1_HUMAN; hPSMA", "assay": "flow cytometry, bispecific antibody titrated on LNCaP cells (human PSMA), anti-human kappa light chain PE", "method": "(§1) PSMA×CD3 bispecific antibodies were tested for binding to PSMA positive cell lines LNCAP, human PSMA-HEK, Chimpanzee-PSMA-HEK and Cynomolgous monkey PSMA-HEK. To assess the binding capabilities of the PSMA bispecific antibodies, the cell-binding assay was utilized (described previously). Briefly, PSMA expressing tumor cells are bound by bispecific antibodies at known concentrations and the bound antibody is detected by an anti-human kappa light chain PE conjugated detection reagent (Invitrogen). The Mean Fluorescents Intensity (MFI) is the measure of bound bispecific antibody. The MFI is converted to a relative EC₅₀. EC₅₀ is a commonly used dose-response curve, where the half maximal effective concentration or the EC₅₀ point is defined as the inflection point of the curve. EC₅₀ s were determined by measuring cell bound bispecific and known concentrations. […] The dose response curves were then diluted down to that of background or no bispecific binding. The inflection point of this curve reflects the EC₅₀ point. The calculated EC₅₀ is determined by taking the ug/ml amount of bispecific antibody at the EC₅₀ point and converting it to a molarity value based on the MW of the bispecific antibody. Bispecific antibodies were normalized for protein concentration and then incubated with the same number of cells expressing either human or cyno PSMA. The MFI at each concentration was collected by flow cytometry and plotted as a function of concentration. Data was transformed via log 10 and then plotted. Nonlinear regression of binding curves was done to determine EC₅₀ s. These relative values were used for ranking PSMA binding to target cells."}, "[2]": {"molecular_target": "T1, human PSMA (prostate specific membrane …)", "assay": "FACS, whole cell binding, LNCaP", "method": "as §1"}, "[3]": {"molecular_target": "T2, Cynomolgous monkey PSMA, full length (Macaca fascicularis, UniProt Q04609 1-750 (human entry))", "T2 construct": "On transfected HEK293F cells; also called cyno PSMA; EHH56646.1", "T2 chain": "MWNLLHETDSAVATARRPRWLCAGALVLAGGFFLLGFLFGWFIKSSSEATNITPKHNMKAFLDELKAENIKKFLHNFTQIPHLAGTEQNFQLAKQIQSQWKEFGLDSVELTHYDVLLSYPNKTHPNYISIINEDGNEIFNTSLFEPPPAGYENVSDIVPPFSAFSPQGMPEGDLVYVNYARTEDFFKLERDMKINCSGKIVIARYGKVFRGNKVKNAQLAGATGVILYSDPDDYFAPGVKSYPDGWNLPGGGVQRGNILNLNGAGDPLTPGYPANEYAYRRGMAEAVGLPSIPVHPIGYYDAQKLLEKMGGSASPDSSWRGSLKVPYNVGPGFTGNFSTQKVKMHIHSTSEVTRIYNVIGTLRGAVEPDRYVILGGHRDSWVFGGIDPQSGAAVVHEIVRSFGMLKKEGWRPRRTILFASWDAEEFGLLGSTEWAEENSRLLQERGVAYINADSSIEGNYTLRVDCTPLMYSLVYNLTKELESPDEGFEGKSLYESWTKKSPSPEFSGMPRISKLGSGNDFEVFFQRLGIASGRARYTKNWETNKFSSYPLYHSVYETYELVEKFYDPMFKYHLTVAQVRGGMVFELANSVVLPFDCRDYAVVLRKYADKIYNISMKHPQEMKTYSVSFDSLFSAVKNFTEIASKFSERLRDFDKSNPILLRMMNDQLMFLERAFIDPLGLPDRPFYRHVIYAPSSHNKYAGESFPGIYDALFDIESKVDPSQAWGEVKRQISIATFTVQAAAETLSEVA", "assay": "FACS, whole cell binding, cyno PSMA HEK", "method": "as §1"}, "[4]": {"molecular_target": "T3, chimpanzee PSMA, full length (Pan troglodytes, UniProt Q04609 1-750 (human entry))", "T3 construct": "On transfected HEK293F cells; also called chimp PSMA; H2Q3K5_PANTR", "T3 chain": "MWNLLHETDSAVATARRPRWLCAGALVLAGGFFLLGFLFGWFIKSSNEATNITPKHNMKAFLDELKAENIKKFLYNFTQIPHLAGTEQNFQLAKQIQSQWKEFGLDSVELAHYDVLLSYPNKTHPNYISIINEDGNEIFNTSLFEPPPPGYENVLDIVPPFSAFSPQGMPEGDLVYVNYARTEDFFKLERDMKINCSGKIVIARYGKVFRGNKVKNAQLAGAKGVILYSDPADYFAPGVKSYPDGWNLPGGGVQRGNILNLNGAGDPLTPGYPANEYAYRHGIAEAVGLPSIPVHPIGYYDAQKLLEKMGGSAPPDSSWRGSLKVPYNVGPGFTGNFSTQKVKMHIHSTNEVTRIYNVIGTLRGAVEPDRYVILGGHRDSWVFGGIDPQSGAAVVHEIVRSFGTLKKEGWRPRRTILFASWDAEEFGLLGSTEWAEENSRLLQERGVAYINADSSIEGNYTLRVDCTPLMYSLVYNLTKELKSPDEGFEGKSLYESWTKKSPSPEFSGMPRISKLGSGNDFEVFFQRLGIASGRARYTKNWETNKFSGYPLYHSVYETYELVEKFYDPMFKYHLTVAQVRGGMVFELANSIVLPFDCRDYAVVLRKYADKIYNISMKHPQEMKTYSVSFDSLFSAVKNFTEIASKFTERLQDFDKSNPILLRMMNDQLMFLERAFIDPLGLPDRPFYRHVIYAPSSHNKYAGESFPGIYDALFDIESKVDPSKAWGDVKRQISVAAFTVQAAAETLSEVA", "assay": "FACS, whole cell binding, chimp PSMA HEK", "method": "as §1"}, "[5]": {"molecular_target": "T1, human PSMA (prostate specific membrane …)", "assay": "FACS, whole cell binding, LNCaP; calculated EC50", "method": "as §1"}, "[6]": {"molecular_target": "T2, Cynomolgous monkey PSMA, full length", "assay": "FACS, whole cell binding, cyno PSMA HEK; calculated EC50", "method": "as §1"}, "[7]": {"molecular_target": "T3, chimpanzee PSMA, full length", "assay": "FACS, whole cell binding, chimp PSMA HEK; calculated EC50", "method": "as §1"}}, "data": [{"binder": "PS3B9 (M84) (bispecific antibody, human IgG4 S228P, kappa, lambda, F234A L235A, also called PSMB127 x CD3B217) heavy chain, PSMA arm (PSMB127): not shown light chain, PSMA arm (PSMB127): not shown heavy chain, CD3 arm (CD3B217): EVQLLESGGGLVQPGGSLRLSCAASGFTFNTYAMNWVRQAPGKGLEWVARIRSKYNNYATYYADSVKGRFTISRDNSKNTLYLQMNSLRAEDTAVYYCVKHGNFGNSYVSWFAYWGQGTLVTVSSASTKGPSVFPLAPCSRSTSESTAALGCLVKDYFPEPVTVSWNSGALTSGVHTFPAVLQSSGLYSLSSVVTVPSSSLGTKTYTCNVDHKPSNTKVDKRVESKYGPPCPPCPAPEAAGGPSVFLFPPKPKDTLMISRTPEVTCVVVDVSQEDPEVQFNWYVDGVEVHNAKTKPREEQFNSTYRVVSVLTVLHQDWLNGKEYKCKVSNKGLPSSIEKTISKAKGQPREPQVYTLPPSQEEMTKNQVSLTCLVKGFYPSDIAVEWESNGQPENNYKTTPPVLDSDGSFLLYSKLTVDKSRWQEGNVFSCSVMHEALHNHYTQKSLSLSLGK light chain, CD3 arm (CD3B217): QAVVTQEPSLTVSPGGTVTLTCRSSTGAVTTSNYANWVQQKPGQAPRGLIGGTNKRAPGTPARFSGSLLGGKAALTLSGAQPEDEAEYYCALWYSNLWVFGGGTKLTVLGQPKAAPSVTLFPPSSEELQANKATLVCLISDFYPGAVTVAWKADSSPVKAGVETTTPSKQSNNKYAASSYLSLTPEQWKSHRSYSCQVTHEGSTVEKTVAPTECS", "values": [{"measurement": "EC50 (read off the curve)", "setting": "[1]", "value": "~2", "unit": "mg/L"}]}, {"binder": "PS3B26 (bispecific antibody, human IgG4 S228P, kappa, lambda, F234A L235A, IgG4 PAA; PSMA arm chains first, then CD3 arm (F405L, R409K); also called PSMB126 x CD3B219) heavy 1: not shown light 1: not shown heavy 2: EVQLVESGGGLVQPGGSLRLSCAASGFTFNTYAMNWVRQAPGKGLEWVARIRSKYNNYATYYAASVKGRFTISRDDSKNSLYLQMNSLKTEDTAVYYCARHGNFGNSYVSWFAYWGQGTLVTVSSASTKGPSVFPLAPCSRSTSESTAALGCLVKDYFPEPVTVSWNSGALTSGVHTFPAVLQSSGLYSLSSVVTVPSSSLGTKTYTCNVDHKPSNTKVDKRVESKYGPPCPPCPAPEAAGGPSVFLFPPKPKDTLMISRTPEVTCVVVDVSQEDPEVQFNWYVDGVEVHNAKTKPREEQFNSTYRVVSVLTVLHQDWLNGKEYKCKVSNKGLPSSIEKTISKAKGQPREPQVYTLPPSQEEMTKNQVSLTCLVKGFYPSDIAVEWESNGQPENNYKTTPPVLDSDGSFLLYSKLTVDKSRWQEGNVFSCSVMHEALHNHYTQKSLSLSLGK light 2: QTVVTQEPSLTVSPGGTVTLTCRSSTGAVTTSNYANWVQQKPGQAPRGLIGGTNKRAPGTPARFSGSLLGGKAALTLSGVQPEDEAEYYCALWYSNLWVFGGGTKLTVLGQPKAAPSVTLFPPSSEELQANKATLVCLISDFYPGAVTVAWKADSSPVKAGVETTTPSKQSNNKYAASSYLSLTPEQWKSHRSYSCQVTHEGSTVEKTVAPTECS", "values": [{"measurement": "EC50", "setting": "[2]", "value": 0.0715, "unit": "mg/L"}, {"measurement": "EC50", "setting": "[3]", "value": 0.371, "unit": "mg/L"}, {"measurement": "EC50", "setting": "[4]", "value": 0.05, "unit": "mg/L"}, {"measurement": "EC50", "setting": "[5]", "value": 0.5, "unit": "nM"}, {"measurement": "EC50", "setting": "[6]", "value": 2.6, "unit": "nM"}, {"measurement": "EC50", "setting": "[7]", "value": 0.34, "unit": "nM"}]}, {"binder": "PS3B8 (M81) (bispecific antibody, human IgG4 S228P, kappa, lambda, F234A L235A, also called PSMB126 x CD3B217) heavy chain, PSMA arm (PSMB126): not shown light chain, PSMA arm (PSMB126): not shown heavy chain, CD3 arm (CD3B217): EVQLLESGGGLVQPGGSLRLSCAASGFTFNTYAMNWVRQAPGKGLEWVARIRSKYNNYATYYADSVKGRFTISRDNSKNTLYLQMNSLRAEDTAVYYCVKHGNFGNSYVSWFAYWGQGTLVTVSSASTKGPSVFPLAPCSRSTSESTAALGCLVKDYFPEPVTVSWNSGALTSGVHTFPAVLQSSGLYSLSSVVTVPSSSLGTKTYTCNVDHKPSNTKVDKRVESKYGPPCPPCPAPEAAGGPSVFLFPPKPKDTLMISRTPEVTCVVVDVSQEDPEVQFNWYVDGVEVHNAKTKPREEQFNSTYRVVSVLTVLHQDWLNGKEYKCKVSNKGLPSSIEKTISKAKGQPREPQVYTLPPSQEEMTKNQVSLTCLVKGFYPSDIAVEWESNGQPENNYKTTPPVLDSDGSFLLYSKLTVDKSRWQEGNVFSCSVMHEALHNHYTQKSLSLSLGK light chain, CD3 arm (CD3B217): QAVVTQEPSLTVSPGGTVTLTCRSSTGAVTTSNYANWVQQKPGQAPRGLIGGTNKRAPGTPARFSGSLLGGKAALTLSGAQPEDEAEYYCALWYSNLWVFGGGTKLTVLGQPKAAPSVTLFPPSSEELQANKATLVCLISDFYPGAVTVAWKADSSPVKAGVETTTPSKQSNNKYAASSYLSLTPEQWKSHRSYSCQVTHEGSTVEKTVAPTECS", "values": [{"measurement": "EC50 (read off the curve)", "setting": "[1]", "value": "~0.1", "unit": "mg/L"}]}, {"binder": "PS3B4 (M52) (bispecific antibody, human IgG4 S228P, kappa, lambda, F234A L235A, also called PSMB122 x CD3B217) heavy chain, PSMA arm (PSMB122): not shown light chain, PSMA arm (PSMB122): DIQMTQSPSSLSASVGDRVTITCRASQSIDRWLNWYQQKPGKAPKLLIYAASSLQSGVPSRFSGSGSGTDFTLTISSLQPEDFATYYCQQSPRYPLTFGQGTKVEIKRTVAAPSVFIFPPSDEQLKSGTASVVCLLNNFYPREAKVQWKVDNALQSGNSQESVTEQDSKDSTYSLSSTLTLSKADYEKHKVYACEVTHQGLSSPVTKSFNRGEC heavy chain, CD3 arm (CD3B217): EVQLLESGGGLVQPGGSLRLSCAASGFTFNTYAMNWVRQAPGKGLEWVARIRSKYNNYATYYADSVKGRFTISRDNSKNTLYLQMNSLRAEDTAVYYCVKHGNFGNSYVSWFAYWGQGTLVTVSSASTKGPSVFPLAPCSRSTSESTAALGCLVKDYFPEPVTVSWNSGALTSGVHTFPAVLQSSGLYSLSSVVTVPSSSLGTKTYTCNVDHKPSNTKVDKRVESKYGPPCPPCPAPEAAGGPSVFLFPPKPKDTLMISRTPEVTCVVVDVSQEDPEVQFNWYVDGVEVHNAKTKPREEQFNSTYRVVSVLTVLHQDWLNGKEYKCKVSNKGLPSSIEKTISKAKGQPREPQVYTLPPSQEEMTKNQVSLTCLVKGFYPSDIAVEWESNGQPENNYKTTPPVLDSDGSFLLYSKLTVDKSRWQEGNVFSCSVMHEALHNHYTQKSLSLSLGK light chain, CD3 arm (CD3B217): QAVVTQEPSLTVSPGGTVTLTCRSSTGAVTTSNYANWVQQKPGQAPRGLIGGTNKRAPGTPARFSGSLLGGKAALTLSGAQPEDEAEYYCALWYSNLWVFGGGTKLTVLGQPKAAPSVTLFPPSSEELQANKATLVCLISDFYPGAVTVAWKADSSPVKAGVETTTPSKQSNNKYAASSYLSLTPEQWKSHRSYSCQVTHEGSTVEKTVAPTECS", "values": [{"measurement": "EC50 (read off the curve)", "setting": "[1]", "value": "~2", "unit": "mg/L"}]}]}
